Sequences and labels used below:
B5: Y1 scFv (human single-chain Fv antibody fragment Y1) (scFv)
scFv: EVQLVESGGGVVRPGGSLRLSCAASGFTFDDYGMSWVRQAPGKGLEWVSGINWNGGSTGYADSVKGRFTISRDNAKNSLYLQMNSLRAEDTAVYYCARMRAPVIWGQGTLVTVSRGGGGSGGGGSGGGGSSELTQDPAVSVALGQTVRITCQGDSLRSYYASWYQQKPGQAPVLVIYGKNNRPSGIPDRFSGSSSGNTASLTITGAQAEDEADYYCNSRDSSGNHVVFGGGTKLTVLGAAAEQKLISEEDLNGAA
notes: Clone from the Nissim I phage display library; Used biotinylated in Western blots; detected with rabbit anti-scFv or anti-VL in FACS and ELISA; also called scFv Y1; scFv-Y1

Where no end group is shown, it is not given here. [ ]: non-standard residue; d: D form. sY = N[C@@H](Cc1ccc(OS(=O)(=O)O)cc1)C(=O)O

Assay [1] deals with T1, PSGL-1 (P-selectin glycoprotein ligand-1, CD162) on KG-1 cells or in KG-1 membrane preparations (human, UniProt Q14242 42-412, sulfated tyrosines in the N-terminal region).
T1 construct: whole, on cells; entries on KG-1 cells, lysates and membrane fractions are written against this molecule; also called KG-1细胞上Y1配体
T1 sequence (looked up): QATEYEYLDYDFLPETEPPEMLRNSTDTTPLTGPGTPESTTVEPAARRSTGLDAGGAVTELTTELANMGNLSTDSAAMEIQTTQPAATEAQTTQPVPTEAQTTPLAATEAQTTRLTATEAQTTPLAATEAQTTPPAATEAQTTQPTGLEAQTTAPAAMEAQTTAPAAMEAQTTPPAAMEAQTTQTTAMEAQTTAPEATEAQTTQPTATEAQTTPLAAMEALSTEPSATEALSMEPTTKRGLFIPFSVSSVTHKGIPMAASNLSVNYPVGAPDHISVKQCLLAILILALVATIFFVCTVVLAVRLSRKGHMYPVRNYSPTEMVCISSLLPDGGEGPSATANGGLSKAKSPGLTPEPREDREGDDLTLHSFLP
Put plainly: radioreceptor assay, ELISA and FACS. (In general: In an ELISA, binding on a coated surface is turned into a signal by an enzyme label.)

Assay [2] addresses T1, PSGL-1 (P-selectin glycoprotein …). Put plainly: second radioreceptor competition on KG-1 cells, labelled CONY1.
Assay [3] shares this target. The assay is described as follows: radioreceptor competition on KG-1 cells, tracer 125I-Y1-IgG 2 ng/tube.
In assay [4] the target is B5. The assay is described as follows: competition ELISA, Y1 scFv on glycocalicin, peptide 1, 10, 100 μM.
Assay [5] addresses T1, PSGL-1 (P-selectin glycoprotein …). Put plainly: Western blot. A general note: Immunoblotting shows a protein as a band on a membrane.
The target of assay [6] is T2, human lumican from plasma (human, UniProt P51884 19-338).
T2 construct: also called H P-配体2
T2 sequence (looked up): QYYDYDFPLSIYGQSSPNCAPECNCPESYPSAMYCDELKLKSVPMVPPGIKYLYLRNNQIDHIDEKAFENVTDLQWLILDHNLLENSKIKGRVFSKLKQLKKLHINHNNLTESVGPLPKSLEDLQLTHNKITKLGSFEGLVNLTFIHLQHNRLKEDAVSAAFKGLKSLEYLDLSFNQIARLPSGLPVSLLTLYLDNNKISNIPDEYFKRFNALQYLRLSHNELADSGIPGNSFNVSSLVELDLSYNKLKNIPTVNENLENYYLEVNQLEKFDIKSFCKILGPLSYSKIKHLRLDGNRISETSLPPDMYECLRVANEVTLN
The assay is described as follows: binding to human plasma proteins.

Assay [7] deals with T1, PSGL-1 (P-selectin glycoprotein …). The assay is described as follows: FACS on KG-1 cells.

Results on seven molecules are retold here after patent CN1649900A (dated 2005).

B1: S-S Y1 dimer (disulfide-bridged dimer of Y1 scFv with a cysteine added at the carboxy terminus) (other)
chain: EVQLVESGGGVVRPGGSLRLSCAASGFTFDDYGMSWVRQAPGKGLEWVSGINWNGGSTGYADSVKGRFTISRDNAKNSLYLQMNSLRAEDTAVYYCARMRAPVIWGQGTLVTVSRGGGGSGGGGSGGGGSSELTQDPAVSVALGQTVRITCQGDSLRSYYASWYQQKPGQAPVLVIYGKNNRPSGIPDRFSGSSSGNTASLTITGAQAEDEADYYCNSRDSSGNHVVFGGGTKLTVLGAAAEQKLISEEDLNGAAC
For B1, the “fold binding over Y1 scFv monomer” value in assay [1] was no less than 20 fold. Moreover, in assay [2], binding was put at a Kd of 0.05 µM and the “fold higher affinity than CONY1” value is 20 fold. For the same molecule, in assay [3], binding was characterised by a dissociation constant (Kd) of 0.04 µM, the “fold higher avidity than CONY1” value was 30 fold and the “fold lower avidity than the whole Y1 antibody” value came to 2 fold.

B2: F-YY, non-sulfated peptide from the fibrinogen γ prime chain (peptide)
peptide: VRPEHPAETEYESLYPEDDL
B2: the binding result in assay [4] is recorded as “no binding (tested: 100μM)”.

B3: CONY1, Y1 scFv monomer in which the myc tag is deleted or replaced by Lys-Ala-Lys (KAK) (scFv)
scFv: EVQLVESGGGVVRPGGSLRLSCAASGFTFDDYGMSWVRQAPGKGLEWVSGINWNGGSTGYADSVKGRFTISRDNAKNSLYLQMNSLRAEDTAVYYCARMRAPVIWGQGTLVTVSRGGGGSGGGGSGGGGSSELTQDPAVSVALGQTVRITCQGDSLRSYYASWYQQKPGQAPVLVIYGKNNRPSGIPDRFSGSSSGNTASLTITGAQAEDEADYYCNSRDSSGNHVVFGGGTKLTVLG
notes: also called CONY1 scFv; Y1-kak
Regarding B3, the Kd (usually the free concentration of one partner at which half of the binding sites on the other are occupied at equilibrium, for simple one-to-one binding) in assay [2] was roughly 1 µM.

B4: Y1-IgG (full-size IgG1 lambda antibody built from the Y1 Fv) (antibody)
chain 1: EVQLVESGGGVVRPGGSLRLSCAASGFTFDDYGMSWVRQAPGKGLEWVSGINWNGGSTGYADSVKGRFTISRDNAKNSLYLQMNSLRAEDTAVYYCARMRAPVIWGQGTLVTVSR
chain 2: SELTQDPAVSVALGQTVRITCQGDSLRSYYASWYQQKPGQAPVLVIYGKNNRPSGIPDRFSGSSSGNTASLTITGAQAEDEADYYCNSRDSSGNHVVFGGGTKLTVLG
Regarding B4, in assay [3], the Kd was roughly 0.02 µM.

With B5, the binding result in assay [5] and in assay [6] was “binds” each time.

B6: Y17 scFv (scFv)
scFv: EVQLVESGGGVVRPGGSLRLSCAASGFTFDDYGMSWVRQAPGKGLEWVSGINWNGGSTGYADSVKGRFTISRDNAKNSLYLQMNSLRAEDTAVYYCARLTHPYFWGQGTLVTVSRGGGGSGGGGSGGGGSSELTQDPAVSVALGQTVRITCQGDSLRSYYASWYQQKPGQAPVLVIYGKNNRPSGIPDRFSGSSSGNTASLTITGAQAEDEADYYCNSRDSSGNHVVFGGGTKLTVLGAAAEQKLISEEDLNGAA
notes: Second scFv clone selected on platelets
B6: in assay [7], the binding result is given as “binds”.

B7: F-Y*Y*, sulfated peptide from the fibrinogen γ prime chain (peptide)
peptide: VRPEHPAETE[sY]ESL[sY]PEDDL
In the case of B7, the binding result in assay [4] was “no binding (tested: 100μM)”.
